{"source": "the DeepSol protein solubility set"}
{"assay": "soluble on expression in E. coli; label from the status in PepcDB or PDB records"}
{"sequence": "MSLEITNPILTGFNPDPSLCRQGEDYYIATSTFEWFPGVRIYHSRDLKNWSLVSTPLDRVSMLDMKGNPDSGGIWAPCLSYADGKFWLLYTDVKIVDSPWKNGRNFLVTAPSIEGPWSEPIPMGNGGFDPSLFHDDDGRKYYIYRPWGPRHHSNPHNTIVLQAFDPQTGTLSPERKTLFTGTPLCYTEGAHLYRHAGWYYLMAAEGGTSYEHAVVVLRSKNIDGPYELHPDVTMMTSWHLPENPLQKSGHGSLLQTHTGEWYMAYLTSRPLRLPGVPLLASGGRGYCPLGRETGIARIEWRDGWPYVEGGKHAQLTVKGPQVAEQPAAVPGNWRDDFDASSLDPELQTLRIPFDDTLGSLTARPGFLRLYGNDSLNSTFTQSTVARRWQHFAFRAETRMEFSPVHFQQSAGLTCYYNSKNWSYCFVDYEEGQGRTIKVIQLDHNVPSWPLHEQPIPVPEHAESVWLRVDVDTLVYRYSYSFDGETWHTVPVTYEAWKLSDDYIGGRGFFTGAFVGLHCEDISGDGCYADFDYFTYEPVEGHHHHHH", "soluble on expression in E. coli": "not soluble"}
{"sequence": "MSLEKKNASTDEKGYYSNKISLEDLNKNIEDKKEQTIYFYQTSCVHCQKVSPIVVPLAKDLNVDMKVIDIENLNEPWDKYNIQGTPTIIHFKDGKEVSRISGEQSKDKFKEWFEQTKKEGHHHHHH", "soluble on expression in E. coli": "not soluble"}
{"sequence": "MSLELTTQDIQLQQHFANKQAAIQGLAHALTAKGLVAEGYAQGMLNREAQHSTYLGNGIAIPHGTTDTRELVKQTGVTAMHFPQGLDWGDGNLVYVAIGIAAKSDEHLGILKQLTRVLSADGVEQALQQAKTAQQIIAIIKGEAQLTADFDASLIQLQFPASDMVQMSAVAGGLLKNTGCAENEFVADLVTKAPTHLGRGLWLVASDRAVKRTGMSIVTTANHCEYEQQAVKALIAFSVCNDVHQPLLNTITQCVFEQKQDQLLQADVQQLLNLFSGNAEQTIAQRTIAVGTITEETIAAETVAEPDSARAHTATFRIKNSHGLHARPGAMLVAEAKKFESNIRVSNLDGDGQVVNAKSLMKVIALGVKHNHQLQFTAEGPDAEAALQALGVAINAGLGEGHHHHHH", "soluble on expression in E. coli": "soluble"}
{"sequence": "MSLELVIGTKRWSSWSLRPWLALKRAGVDFTELEVALRRGEATGDEIGCISPSRLAPALRDGDLVIWDSLAICEYLAERYPDAKLWPDDPVLRALGRSACAEMHSGFQALRGECPMALDEPPRKLDLSEATQKNVRRIVALWTGLLARSHGPFLLGDWSIADAFYTPVATRFRTYDVRLADYGDAGAAQGYSDRLLQTPEFLEWERAAQAGEGHHHHHH", "soluble on expression in E. coli": "soluble"}
{"sequence": "MSLENAGSRPFLADFNGFSYLELKGLHTFERDLGEKMALEMVFLARGPSGLLLYNGQKTDGKGDFVSLALHNRHLEFRYDLGKGAAIIRSKEPIALGTWVRVFLERNGRKGALQVGDGPRVLGESPVPHTMLNLKEPLYVGGAPDFSKLARGAAVASGFDGAIQLVSLRGHQLLTQEHVLRAVDVAPFAGEGHHHHHH", "soluble on expression in E. coli": "soluble"}
{"sequence": "MSLENKMPKDFFWGNSTSSMQTEGGWNEGGKGPSVYDVNTAGRSAKDWQVTNDNYHHYSQDLDLMKEMNMNMYRFQISWSRIVPDGDGEFNEEGIAFYNRLIDDLLARGIEPMICLYHFDMPLNLAEKYNGFLSRKVKEAFVRFGQEMMKRFADKVKYWIVFNEHNLYFADGFEHYSGVLKKELTLSDMYTVFHHTMLAHCELTQFLHENFEAKIGGMLATTEIYPATFSPKDNLYLRKFDEFYNRNLCDVYAFGHYSHEVMTYVKNQNIQMDFQKGDEEILKNGISDFISFSYYRSILLDASQLTENDAPNSYLTKGMKLNPLLEHNQWDWSIDPEGFRRILSRLYNEFGLPVFPIENGIGQSEIWDGKTKIADDLRIFYHQKHLEAMKKAIFTDGVEVMGYLGWGLIDIPASSGAIDKRYGAVYVDPKSHKRIPKKSFHWFKNVFASNGDHLDEGHHHHHH", "soluble on expression in E. coli": "not soluble"}
{"sequence": "MSLEPLAETYQALVLAVRDYVTKNGFHGAVLGLSGGIDSALTLAIAADAIGADKVQAVMMPFRYTAQMSVEDAKEQAERMGVEFNIISIEPMFEGFMAQLAPLFEGTARDTTEENLQARCRGVLLMALSNKRRCIVLTTGNKSEMAVGYATLYGDMAGGFDVLKDVPKTLVFKLCEYRNSVDYVIPQRVIDRPPSAELAPDQVDQDSLPPYDILDAILKRYVEEDASVADMVAEGFEEAVVRKVIRLVDLNEYKRRQAAVGPRITARNEGHHHHHH", "soluble on expression in E. coli": "not soluble"}
{"sequence": "MSLEQKQMEEKIMNLLTSAPDKTFALEDLEIEIALNNADNFKLMVKALVKLEDSGTIVRSRKNRYALPEKMDLVKGTFRAHERGFGFVLPEEKEMDDIFIPPNEVKDAMNGDLVFATITKRKGDNLAEGTIKKIVERKTTQIVGTYMEDLAGTPIVMPDDKRLFGEVEIDLEDGLKPVDGHKVIVELTEYATGHARARGVVKSIIGHRNDPGVDILSIIHKHGISIGFPEEVMEQVSKAPDLVDDSDIGNRRDLRDQMIITIDGADAKDLDDAVTVKQLPNGNWKLGVHIADVTHYVTEGSPLDIEAQERGTSVYLVDRVIPMLPHKLSNGICSLNPQVDRFTMSCEMEIDQEGHVVNHEIFESIIKTTERMTYTDVNDILVEKDEALREKYAPIVPMLEAMQNLAEILRRKREKRGAIDFDFKEARVVVDEDGHPEAVVMRERSAGEHLIEEFMLAANETVAEHFHWMDVPFIYRIHEDPKEDKLARFFEFITNFGLIVKGTANDIHPAALQQVLEEVKGKPEEMVVSTVMLRSMQQAKYDTVSAGHFGLSTDFYTHFTSPIRRYPDLIVHRLIREYLINGDVRPETLEKRAEELPEIAEHSSKMERRAVEAERETDELKKTEFMVDKVGERFIGIISSVTNFGLFIELPTTIEGLVHVSAMKGDYFKFHQNQLAMIGERTGQIYRIGDEVEVEVTKVDVDAREIDFALRSEGKPGPVSDKQKRQREKPIDKTRNFKSSSKNNRNKRRTGKSEDVKPKTERKDDEWYTKPKKKKKKKPFYQGVAKESPKKKKRREGHHHHHH", "soluble on expression in E. coli": "soluble"}
{"sequence": "MSLERIDIASVKGGVGKSFIAYFLSKTLAASHKILLIDKDLTSTLSRVYNIKGNLLSYLTVGQSSLAYFKEVDSGLTVVNVGCSRKIKNVEPKKIADIYSGFSDHDLMIVDNPSIPSDVCLDTELQAYYTYLNEKRLDYNLILILPPNQLLLDESLAFMQLFKDYIKNELSISLGNDLVNFDVISSVINMYNPRERIDISKIKDLTSKIVKIPFKKEAIYTPFNQLNTPMEISELAKYVLEYLESREGHHHHHH", "soluble on expression in E. coli": "soluble"}
{"sequence": "MSLETMNNKYKIMQLSDLHFGQDLGRCDDTNTSSGEHVDEFKCSSDLKTLKFIEKSIQEENPDLIVITGDLIDIHRSIDYKSIMLKSLQPILAHKIKFIYTFGDEIKDQLTKISIIQFLSTLPNCLNTVPQEVIEGITNYNFQIKQKSSTPSSSSSISVTVLDSEDHLIDDSQMTYLYRINNELLNDYKLLFFHYPLPQFRPKGKFKIVGSYNEKHELDRKTKLKFHDDIISCGYNVISVGHEHENDACLLSSSSSSSNSDKSIWLCYNSITGDSGITKLDKQYVRKMRLFEIDFEKNRILSWKRKEIDNQPFDYQLIYEKPQKEGHHHHHH", "soluble on expression in E. coli": "soluble"}
{"sequence": "MSLEYKQASIFDNEVKKNKPLADRMRPKTLDEFVGQEHLLGKGKLLRELIEKDNITSMILWGPPGVGKTTLAMIIANMTNSKFITFSAVLSGIKEIKEIMAKAELDAMYGTRTVVFIDEIHRFNKAQQDAFLPHVEKGNIILIGATTENPSFEVNSALLSRSKVFVMKPLTEEDLLILLKRALKDEQNGFGMYKIGITDEQLKKIALFANGDARVALNTLEIAVMGAKVIEGERIVTDDILADAMQKKTLLYDKQGEEHYNLISAFHKSLRNSDWDAAVYWLARMLEAGEDPLYIARRMIRFASEDIGLADPQALEMAVAAYNACHYIGIPECSVNLAQVAIYLALAPKSNAVYMAYNKAKKDAEETIAESVPIHLRNAPTKLMKELGYGKGYKYAHDFEEKVTDMQCLPDNLKDRKYYVPTDSGFEKDIQKRLEQISNLKKKGEGHHHHHH", "soluble on expression in E. coli": "soluble"}
{"sequence": "MSLFDFFKNKGSAATATDRLKLILAKERTLNLPYMEEMRKEIIAVIQKYTKSSDIHFKTLDSNQSVETIEVEIILPR", "soluble on expression in E. coli": "not soluble"}
{"sequence": "MSLFRLVFVMDIFNRNVVLAKGGIRENYRPVSDSSAVCRTSDPLEILEILRPKEVYIADLNVLQGKGPLDMNAEIIREVSFKADTMLDSGVSSSKDVDRALSIAGTAVIGTETGTLEVIKDSISRNPGRISVSIDIKHGKLLKQDPKIPEDPFEIVKILNRLPLKDLIFLDLDRVGTASGFDPEFLRKLAESSAHDVLLAGGVRGMKDLFALDSLGIKGALVATAIHSGEVSPEVMTLGLKKEGHHHHHH", "soluble on expression in E. coli": "soluble"}
{"sequence": "MSLGAYLSQPNTVKCSGDGVGAPRLPLPYGFSAMQGWRVSMEDAHNCIPELDSETAMFSVYDGHGGEEVALYCAKYLPDIIKDQKAYKEGKLQKALEDAFLAIDAKLTTEEVIKELAQIAGRPGMEGKEEPGSDSGTTAVVALIRGKQLIVANAGDSRCVVSEAGKALDMSYDHKPEDEVELARIKNAGGKVTMDGRVNGGLNLSRAIGDHFYKRNKNLPPEEQMISALPDIKVLTLTDDHEFMVIACDGIWNVMSSQEVVDFIQSKISQRDENGELRLLSSIVEELLDQCLAPDTSGDGTGCDNMTCIIICFKPRNTAELQPESGKRKLEEVLSTEGAEEEGHHHHHH", "soluble on expression in E. coli": "soluble"}
{"sequence": "MSLGEEFHRNRTRFTKDPRVKSQDLLILALMDNQLRPTLHYQAQNPHRRVLVTGATGYIGGRLITELLAAGFQVRATSRKKTSLQRFDWYEDVEAVEADLTDATELDTLFKDVDVVYYLVHSMGGKNVDFEEQEQRTAENVIQAADQAGIKQIVYLSGLHPRNRKIEELSKHMRSREKVAQILLAGQTPALILRAATIIGSGSASFEIIRHLTERLPRMIAPQWITNQIEPLAIRDVLHYLISAADLKDPVNRSCDIGCGKSYEFADLLRIYADVRGLKRHVNSVPLNLPMDKLSGLWISLVTPVPFQLSFPLAQSMAEDAVTEEHSIKDIISDPPDGFIEYREAVELALAAEFDRGVPTSWDRSWTVQQPWAGQPTDPEWAGKAVYEDVRTEDTDLRAAQVWPIIEGLGGVNGWYSAPLLWRLRGIADRLIGGPGLGGRRDPRHLKLGDRIDWWRVTEIDPPHRLVLTAEMKVDGGAWLILEVADKENGGCTYTQRAIFEPKGEGHHHHHH", "soluble on expression in E. coli": "not soluble"}
{"sequence": "MSLGETFTITKMNVERIKQEERLFCKSCASPVMIKAGQIKIPHFAHEKTMKCAFASEGESEEHLAAKKQIMAWYCYQSIPVEVESYFPEIKRQADIFVNGKAVIEFQRSSISISEMIQRTMDYLSIGLEVHWILGQVVRKEKGRICLSAFQQAFIQSDKKLGYHFWHYSTEREICTLYYHLTFEKGNRFFASEMKFSMKAPFSEWKKKLARIITRHAYVKRDRELERQKICFYYAKFKKHGQFMQKLFNAGYYLHYLPKEIGVDLEEQFLVITPAVEWQFDLWEKFFKGLEKGDTFSECCFFESFQSVVTQILTIWLSPNESLKLGKSYLSYLIGEGVLSTIPDNRYRVKRKMVFTNTRAAHIEGHHHHHH", "soluble on expression in E. coli": "not soluble"}
{"sequence": "MSLGFHEVRFPTNLSFGSIGGPERRTEIVTLVNGFEERNSLWAHSRRRYDAGVALRSLDDIQALLAFFEARRGQLYGFRWKDWADYRSCPATASPGPKDQPLGIGDGISREFALVKTYRSGSEQYVRPVAKPVAGSVKVAVAGAVLVEGAGFSVDETRGLVTLAAAPAEGAAVTAGFEFDVPVRFDTDRIQISMASFQAGEVPSVPVMEVRVEGHHHHHH", "soluble on expression in E. coli": "soluble"}
{"sequence": "MSLGGANGKSGLRIWRNARLATMADGVAGLGIVEKGAIATRDGLIIYAGAEASMPALAGPGAETVDCEGRWITPGLIDCHTHLVYAGNRANEFEMRLAGATYEEVARAGGGIVSSVKSLRAANEDELVAQTLPRLDALMAEGVTTVEVKSGYGLDLDNEKKSLRAARRLANERPVTIRTTCLAAHALPPEAKGDKEAFVDLVAGTILPGVAAEKLADAVDGFCEGIAFSPEQIARVFDKARALGLPVKLHADQLSNLHGAALAASYGALSADHLEYTDEAGAAAMAKAGTVATILPGAYYFIRETKKPPVDLFRRHGVKMAVATDSNPGTSPLTSLLLTMNMAATLFGLTVDECLAGVTREAARALGLLDKTGTLEAGKSADLAIWDIERPAELVYRMGFNPLHARIWRGQGSLSAPNTQPAFTIRTAKGIITITTDPNSSSVDKLAAALEHHHHHH", "soluble on expression in E. coli": "soluble"}
